Measurements published in US20040086945A1, “Hairless protein-interacting partner complexes and methods thereto” (The Procter & Gamble Company, priority 2002, published 2004).

T1: mouse HRt (hairless protein aa 490-1182) (Mus musculus, UniProt Q61645)
T1 construct: HR cDNA corresponding to the C-terminal half of HR protein (aa residues 490 to 1182, hereinafter HRt); expressed in transfected cells; host or cells: Saccharomyces cerevisiae PJ69-2A transformed with BD-HRt plasmid, mated with Y187 carrying the human brain cDNA library in pACT2
T1 sequence (Q61645 490-1182): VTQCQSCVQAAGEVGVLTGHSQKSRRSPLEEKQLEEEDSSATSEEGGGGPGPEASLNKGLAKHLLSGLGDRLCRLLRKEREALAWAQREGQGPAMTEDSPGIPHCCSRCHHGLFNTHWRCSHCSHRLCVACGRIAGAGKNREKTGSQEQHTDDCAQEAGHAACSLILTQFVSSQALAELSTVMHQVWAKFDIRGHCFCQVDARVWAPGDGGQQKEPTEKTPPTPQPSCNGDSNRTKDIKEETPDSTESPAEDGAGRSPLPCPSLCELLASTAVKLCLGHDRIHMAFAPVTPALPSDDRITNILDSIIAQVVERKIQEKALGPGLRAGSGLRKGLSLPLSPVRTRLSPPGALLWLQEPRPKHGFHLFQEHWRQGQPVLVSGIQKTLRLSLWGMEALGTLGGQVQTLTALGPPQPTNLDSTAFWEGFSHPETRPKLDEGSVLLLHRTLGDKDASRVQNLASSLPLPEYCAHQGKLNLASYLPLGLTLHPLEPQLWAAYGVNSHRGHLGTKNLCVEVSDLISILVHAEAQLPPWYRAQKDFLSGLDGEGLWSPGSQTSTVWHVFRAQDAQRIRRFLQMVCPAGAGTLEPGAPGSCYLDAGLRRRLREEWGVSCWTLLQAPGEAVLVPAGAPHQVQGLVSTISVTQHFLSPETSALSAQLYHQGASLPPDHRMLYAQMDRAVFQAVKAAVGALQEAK


Target: T1, mouse HRt (hairless protein aa 490-1182)
Assay: Yeast two-hybrid screen of BD-HRt against human brain cDNA library in AD vector, lacZ coloration on QDO-Xgal plates
Type: cell-based
Settings: BD-HRt(mouse) x human brain cDNA library in AD-vector
Text: The present example provides for Hairless Protein (HR) interacting partners (HR-IP) using the yeast two-hybrid technology. […] Yeast cells expressing BD-HRt are mated with yeast cells pretransformed with human brain cDNA library in the activation domain (AD) vector.
Cloning of HRt into GAL4 binding domain (BD) yeast two-hybrid (Y2H) vector: The HRt insert from pET32a-HRt is excised as an Eco RI-Xho I fragment (there is a unique Xho I site just adjacent to HRt insert) and inserted at the Eco RI-Sal I sites of Y2H-BD vector pGBKT7 (Catalog No. K1612-B; a component of Matchmaker two-hybrid System 3 (Catalog No. K1612-1) BD Biosciences Clontech, Palo Alto, Calif.) to obtain pGBKT7-HRt in which HRt is fused in-frame to GAL 4 DNA BD (this plasmid is also designated BD-HRt).
Pretransformed human brain […] cDNA Library Screen for HRt interaction partners: Pretransformed human brain […] high-complexity GAL4 cDNA library that has already been amplified and introduced into yeast strain Y187 (MATα) is used to screen for HRt interacting proteins. […] The library host strain Y187 provides a third reporter gene (lacZ) for optional quantification of signal strength. The protocol as described in Clontech user manual (PT3183-1) is used. Briefly, the library is mixed with PJ69-2A strain that has been transformed with the BD-HRt plasmid in YPD medium containing adenine hemisulfate (0.004%) and kanamycin (0.005%) and incubated for 20-24 h at 30° C. The next day, the mating mixture is plated on Leu, Trp, His TDO that selects for two-hybrid interactions, and then the positive clones are screened for growth on Leu, Trp, His, Ade QDO, which is a more stringent condition for interaction. Colonies that grew well on QDO are also screened for lacZ expression by streaking on QDO-Xgal plates. Based on a visual assessment of colonies for the intensity of blue color, the clones are classified into high (H), medium (M), low (L) or very low (VL) categories.
The positive clones are expected to contain an AD-IP (interacting partner) that interacts with BD-HRt. To characterize IP, the sequence of IP is determined and matched to the human genome database. For this purpose, total DNA is isolated from the positive clones and PCR amplified with […] AD LD (long distance)-insert screening amplimers (Catalog No.9103-1; BD Biosciences Clontech, PaloAlto, Calif.). Reaction is conducted in 50 μl volume for 35 cycles using the conditions recommended with the Advantage2 PCR kit (Catalog No. K1910-1; BD Biosciences Clontech, PaloAlto, Calif.).

Molecule | XGAL (rate and intensity of coloration of colonies on Xgal)
Human alpha enolase: human HRt interacting partner, GenBank M14328, SEQ ID NO:32/33 (protein, listed as Homo sapiens) DGEPCFSCLYGNGPHPPAPQPSSRFNDAPAADKEPSVVQFCEFVSAPEVSRWAGPIIDVLLDYVGNVQLCSRLKEHIDSFEDWAVIKEKAEPPRPLAHLCRLRVRKAIGKYRIKLLDTLPLPGRLIRYLKYENTQ | M (M = Medium blue in 3-5 days)
Human POM-ZP3: human HRt interacting partner, GenBank U10099, SEQ ID NO:36/37 (protein, listed as Homo sapiens) LEQKLALAERIRGHVLSLALQMYGCRVIQKALEFIPSDQQNEMVRELDGHVLKCVKDQNGNHVVQKCIECVQPQSLQFIIDAFKGQVFALSTHP | M (M = Medium blue in 3-5 days)
Human VPS41: human HRt interacting partner, GenBank U87309, SEQ ID NO:46/47 (protein, UniProt P49754 1-854, looked up) Vacuolar protein …: MAEAEEQETGSLEESTDESEEEESEEEPKLKYERLSNGVTEILQKDAASCMTVHDKFLALGTHYGKVYLLDVQGNITQKFDVSPVKINQISLDESGEHMGVCSEDGKVQVFGLYSGEEFHETFDCPIKIIAVHPHFVRSSCKQFVTGGKKLLLFERSWMNRWKSAVLHEGEGNIRSVKWRGHLIAWANNMGVKIFDIISKQRITNVPRDDISLRPDMYPCSLCWKDNVTLIIGWGTSVKVCSVKERHASEMRDLPSRYVEIVSQFETEFYISGLAPLCDQLVVLSYVKEISEKTEREYCARPRLDIIQPLSETCEEISSDALTVRGFQENECRDYHLEYSEGESLFYIVSPRDVVVAKERDQDDHIDWLLEKKKYEEALMAAEISQKNIKRHKILDIGLAYINHLVERGDYDIAARKCQKILGKNAALWEYEVYKFKEIGQLKAISPYLPRGDPVLKPLIYEMILHEFLESDYEGFATLIREWPGDLYNNSVIVQAVRDHLKKDSQNKTLLKTLAELYTYDKNYGNALEIYLTLRHKDVFQLIHKHNLFSSIKDKIVLLMDFDSEKAVDMLLDNEDKISIKKVVEELEDRPELQHVYLHKLFKRDHHKGQRYHEKQISLYAEYDRPNLLPFLRDSTHCPLEKALEICQQRNFVEETVYLLSRMGNSRSALKMIMEELHDVDKAIEFAKEQDDGELWEDLILYSIDKPPFITGLLNNIGTHVDPILLIHRIKEGMEIPNLRDSLVKILQDYNLQILLREGCKKILVADSLSLLKKMHRTQMKGVLVDEENICESCLSPILPSDAAKPFSVVVFHCRHMFHKECLPMPSMNSAAQFCNICSAKNRGPGSAILEMKK | M (M = Medium blue in 3-5 days)
Human alpha-tubulin: human HRt interacting partner, GenBank AF141348, SEQ ID NO:50 (protein, listed as Homo sapiens) QSLGLLDQNPHLAQELRPQIQELLHSEHLGPSELEAPAPGGSSEDKGGLQPPDSKDADTPMTLPKGSTEQDAASPEKEKMNPLEQYERKVNASVPRGFPFHSSEIQRDELAPAGTGVSREAVSGLLIMGAGGGSLIVLSMLLLRRKKPYGAISHGVVEVDPMLTLEEQQLRELQRHGYENPTYRFLEERP | L (L = Low blue in 5-7 days)

Results, then the molecule that gave them:

XGAL (rate and intensity of coloration of colonies on Xgal) | Molecule
M (M = Medium blue in 3-5 days) | Human hypothalamus protein HSMNP1: human HRt interacting partner, GenBank AF220191, SEQ ID NO:30/31 (protein, listed as Homo sapiens) DRRFSRSAIPEQIISSTLSSPSSNAPDPCAKETVLSALKEKKKKRTVEEEDQIFLDGQENKRSCLVDGLTDASSAFKVPRPGPDTLQFTVDVFHFANDSRNMIYITCHLKVTLAEQDPDELNKACSFSKPSNSWFPVEGPADICQCCNKGDCGTPSHSRRQPRVVSQWSTSASRNRRHVTEEADVTVGATDLPGQEW
M (M = Medium blue in 3-5 days) | Human quinone oxidoreductase(NQO2): human HRt interacting partner, GenBank J02888, SEQ ID NO:40/41 (protein, listed as Homo sapiens) PDSNAIRPQLVPHHRTTQQEAGGTMTSATQSARAFSRAPPQTSLWPALPSSLELELLQRQPQQASLHIEVAGPIAQTRETHRELYVFIFLL
L (L = Low blue in 5-7 days) | Human transcription factor Y, gamma: human HRt interacting partner, GenBank BC005003, SEQ ID NO:53/54 (protein, UniProt Q13952 1-458, looked up) Nuclear transcription factor …: MSTEGGFGGTSSSDAQQSLQSFWPRVMEEIRNLTVKDFRVQELPLARIKKIMKLDEDVKMISAEAPVLFAKAAQIFITELTLRAWIHTEDNKRRTLQRNDIAMAITKFDQFDFLIDIVPRDELKPPKRQEEVRQSVTPAEPVQYYFTLAQQPTAVQVQGQQQGQQTTSSTTTIQPGQIIIAQPQQGQTTPVTMQVGEGQQVQIVQAQPQGQAQQAQSGTGQTMQVMQQIITNTGEIQQIPVQLNAGQLQYIRLAQPVSGTQVVQGQIQTLATNAQQGQRNASQGKPRRCLKETLQITQTEVQQGQQQFSQFTDGQRNSVQQARVSELTGEAEPREVKATGNSTPCTSSLPTTHPPSHRAGASCVCCSQPQQSSTSPPPSDALQWVVVEVSGTPNQLETHRELHAPLPGMTSLSPLHPSQQLYQIQQVTMPAGQDLAQPMFIQSANQPSDGQAPQVTGD
M (M = Medium blue in 3-5 days) | Human pumilio(PUMH1): human HRt interacting partner, GenBank D43951, SEQ ID NO:44/45 (protein, UniProt Q14671 2-1186, looked up) Pumilio homolog 1: SVACVLKRKAVLWQDSFSPHLKHHPQEPANPNMPVVLTSGTGSQAQPQPAANQALAAGTHSSPVPGSIGVAGRSQDDAMVDYFFQRQHGEQLGGGGSGGGGYNNSKHRWPTGDNIHAEHQVRSMDELNHDFQALALEGRAMGEQLLPGKKFWETDESSKDGPKGIFLGDQWRDSAWGTSDHSVSQPIMVQRRPGQSFHVNSEVNSVLSPRSESGGLGVSMVEYVLSSSPGDSCLRKGGFGPRDADSDENDKGEKKNKGTFDGDKLGDLKEEGDVMDKTNGLPVQNGIDADVKDFSRTPGNCQNSANEVDLLGPNQNGSEGLAQLTSTNGAKPVEDFSNMESQSVPLDPMEHVGMEPLQFDYSGTQVPVDSAAATVGLFDYNSQQQLFQRPNALAVQQLTAAQQQQYALAAAHQPHIGLAPAAFVPNPYIISAAPPGTDPYTAGLAAAATLGPAVVPHQYYGVTPWGVYPASLFQQQAAAAAAATNSANQQTTPQAQQGQQQVLRGGASQRPLTPNQNQQGQQTDPLVAAAAVNSALAFGQGLAAGMPGYPVLAPAAYYDQTGALVVNAGARNGLGAPVRLVAPAPVIISSSAAQAAVAAAAASANGAAGGLAGTTNGPFRPLGTQQPQPQPQQQPNNNLASSSFYGNNSLNSNSQSSSLFSQGSAQPANTSLGFGSSSSLGATLGSALGGFGTAVANSNTGSGSRRDSLTGSSDLYKRTSSSLTPIGHSFYNGLSFSSSPGPVGMPLPSQGPGHSQTPPPSLSSHGSSSSLNLGGLTNGSGRYISAAPGAEAKYRSASSASSLFSPSSTLFSSSRLRYGMSDVMPSGRSRLLEDFRNNRYPNLQLREIAGHIMEFSQDQHGSRFIQLKLERATPAERQLVFNEILQAAYQLMVDVFGNYVIQKFFEFGSLEQKLALAERIRGHVLSLALQMYGCRVIQKALEFIPSDQQNEMVRELDGHVLKCVKDQNGNHVVQKCIECVQPQSLQFIIDAFKGQVFALSTHPYGCRVIQRILEHCLPDQTLPILEELHQHTEQLVQDQYGNYVIQHVLEHGRPEDKSKIVAEIRGNVLVLSQHKFASNVVEKCVTHASRTERAVLIDEVCTMNDGPHSALYTMMKDQYANYVVQKMIDVAEPGQRKIVMHKIRPHIATLRKYTYGKHILAKLEKYYMKNGVDLGPICGPPNGII
